Measurements as given in patent US20090263375A1 (WISCONSIN ALUMNI RESEARCH FOUNDATION, published 2009).

B1: Flag-Star-PAP (full length) (enzyme)
chain: MAAVDSDVESLPRGGFRCCLCHVTTANRPSLDAHLGGRKHRHLVELRAARKAQGLRSVFVSGFPRGVDSAQLSEYFLAFGPVASVVMDKDKGVFAIVEMGDVGAREAVLSQSQHSLGGHRLRVRPREQKEFQSPASKSPKGAAPDSHQLAKALAEAADVGAQMIKLVGLRELSEAERQLRSLVVALMQEVFTEFFPGCVVHPFGSSINSFDVHGCDLDLFLDLGDLEEPQPVPKAPESPSLDSALASPLDPQALACTPASPPDSQPPASPQDSEALDFETPSSSLAPQTPDSALASETLASPQSLPPASPLLEDREEGDLGKASELAETPKEEKAEGAAMLELVGSILRGCVPGVYRVQTVPSARRPVVKFCHRPSGLHGDVSLSNRLALHNSRFLSLCSELDGRVRPLVYTLRCWAQGRGLSGSGPLLSNYALTLLVIYFLQTRDPPVLPTVSQLTQKAGEGEQVEVDGWDCSFPRDASRLEPSINVEPLSSLLAQFFSCVSCWDLRGSLLSLREGQALPVAGGLPSNLWEGLRLGPLNLQDPFDLSHNVAANVTSRVAGRLQNCCRAAANYCRSLQYQRRSSRGRDWGLLPLLQPSSPSSLLSATPIPLPLAPFTQLTAALVQVFREALGCHIEQATKRTRSEGGGTGESSQGGTSKRLKVDGQKNCCEEGKEEQQGCAGDGGEDRVEEMVIEVGEMVQDWAMQSPGQPGDLPLTTGKHGAPGEEGQPSHAALAERGPKGHEAAQEWSQGEAGKGASLPSSASWRCALWHRVWQGRRRARRRLQQQTKEGAGGGAGTRAGWLATEAQVTQELKGLSGGEERPETEPLLSFVASVSPADRMLTVTPLQDPQGLFPDLHHFLQVFLPQAIRHLK
notes: Expressed in HEK 293 cells and purified on anti-FLAG M2 resin together with its associated complex; also called Flag tagged Star-PAP; full-length Star-PAP; not shown: FLAG tag

How the values were obtained:
Test in all cases: FLAG affinity purification from HEK 293 cells, western blot
[1] = biological target: B1
Protocol: (§1) Affinity purification of Flag-Star-PAP and Flag-PAPα and their associated complex of proteins in parallel allowed a comparison of the complexes formed by Star-PAP and PAPα in more detail. Flag tagged Star-PAP and PAPα were purified from HEK 293 cells stably expressing Flag-Star-PAP or Flag-PAPα (following manufacturer's instructions; Sigma-Aldrich) and the presence of endogenous symplekin, CPSF¹⁰⁰, CPSF⁷³, CstF⁶⁴, RNA Pol II, Sm protein (Y12) and PIPKIα was assessed by western blotting. Like Flag-PAPα, Flag-Star-PAP associates with symplekin, CPSF¹⁰⁰ and CPSF⁷³, further confirmation that Star-PAP may function in an mRNA polyadenylation complex (FIG. 7). Also detected with both PAPs was a faster migrating form of RNA Pol II and Sm protein (Y-12), a component of the spliceosome, which is consistent with reports that the machinery for splicing and polyadenylation are coupled.

[2] = biological target: T1, Flag-PAPα (canonical poly(A) polymerase) (Homo sapiens (Human), UniProt P51003 1-745, limits assumed)
T1 construct: not shown: FLAG tag
T1 sequence (P51003 whole entry): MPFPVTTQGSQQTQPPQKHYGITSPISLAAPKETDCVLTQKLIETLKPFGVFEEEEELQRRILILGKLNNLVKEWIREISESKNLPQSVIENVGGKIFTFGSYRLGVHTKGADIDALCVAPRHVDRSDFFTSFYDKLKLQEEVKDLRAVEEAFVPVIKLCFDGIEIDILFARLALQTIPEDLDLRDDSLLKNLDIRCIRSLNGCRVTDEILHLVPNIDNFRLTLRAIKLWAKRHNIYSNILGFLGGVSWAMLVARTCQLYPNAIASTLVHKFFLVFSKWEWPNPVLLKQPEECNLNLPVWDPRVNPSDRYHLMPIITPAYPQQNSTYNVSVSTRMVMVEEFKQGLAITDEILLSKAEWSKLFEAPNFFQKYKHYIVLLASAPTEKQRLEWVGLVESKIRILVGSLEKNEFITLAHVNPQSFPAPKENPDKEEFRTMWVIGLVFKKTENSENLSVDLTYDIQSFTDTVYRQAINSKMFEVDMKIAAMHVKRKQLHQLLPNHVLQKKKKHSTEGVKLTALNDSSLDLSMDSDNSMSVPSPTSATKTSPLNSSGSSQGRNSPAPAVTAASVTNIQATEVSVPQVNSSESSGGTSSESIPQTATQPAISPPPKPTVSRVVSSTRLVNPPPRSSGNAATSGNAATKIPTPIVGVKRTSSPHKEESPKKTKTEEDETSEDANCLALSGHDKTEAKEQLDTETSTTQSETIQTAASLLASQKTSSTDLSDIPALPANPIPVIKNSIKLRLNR
Protocol: as §1

Symplekin = biological target: T2, Symplekin (human, UniProt Q92797 1-1274)
T2 sequence (looked up): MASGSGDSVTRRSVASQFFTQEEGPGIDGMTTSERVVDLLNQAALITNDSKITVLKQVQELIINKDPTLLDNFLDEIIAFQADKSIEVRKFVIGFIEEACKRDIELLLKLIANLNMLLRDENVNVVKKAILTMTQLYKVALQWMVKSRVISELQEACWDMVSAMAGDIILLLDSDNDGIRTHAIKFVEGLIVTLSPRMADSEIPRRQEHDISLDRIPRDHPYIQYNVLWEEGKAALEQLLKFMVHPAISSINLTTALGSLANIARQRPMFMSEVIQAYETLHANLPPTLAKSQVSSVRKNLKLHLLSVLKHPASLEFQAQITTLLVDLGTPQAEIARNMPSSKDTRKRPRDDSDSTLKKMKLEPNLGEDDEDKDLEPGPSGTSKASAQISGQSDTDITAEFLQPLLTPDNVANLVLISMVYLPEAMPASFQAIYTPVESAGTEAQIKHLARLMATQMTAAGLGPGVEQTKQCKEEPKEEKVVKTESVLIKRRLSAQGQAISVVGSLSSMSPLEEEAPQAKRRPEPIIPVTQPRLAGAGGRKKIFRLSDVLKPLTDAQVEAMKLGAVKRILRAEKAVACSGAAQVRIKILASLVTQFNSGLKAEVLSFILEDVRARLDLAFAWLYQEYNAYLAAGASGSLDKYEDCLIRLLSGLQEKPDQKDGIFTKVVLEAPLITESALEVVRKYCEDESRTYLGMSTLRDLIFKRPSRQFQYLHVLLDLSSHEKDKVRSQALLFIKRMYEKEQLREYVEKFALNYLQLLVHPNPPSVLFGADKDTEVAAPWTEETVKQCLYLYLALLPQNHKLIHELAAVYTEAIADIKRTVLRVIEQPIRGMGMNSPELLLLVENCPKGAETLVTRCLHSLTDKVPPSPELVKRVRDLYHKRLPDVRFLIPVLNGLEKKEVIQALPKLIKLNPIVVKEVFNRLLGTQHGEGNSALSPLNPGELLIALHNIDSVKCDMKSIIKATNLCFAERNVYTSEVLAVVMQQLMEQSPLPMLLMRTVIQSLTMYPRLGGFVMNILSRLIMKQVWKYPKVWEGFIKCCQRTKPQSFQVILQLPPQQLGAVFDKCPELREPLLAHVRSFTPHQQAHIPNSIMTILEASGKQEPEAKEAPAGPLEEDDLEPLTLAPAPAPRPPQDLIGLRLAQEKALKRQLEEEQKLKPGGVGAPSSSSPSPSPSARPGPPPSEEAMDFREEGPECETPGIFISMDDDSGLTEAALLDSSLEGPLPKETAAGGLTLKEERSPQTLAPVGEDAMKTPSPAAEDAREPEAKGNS
Protocol: as §1

Binder	binding result [1]	binding result [2]	binding result (Symplekin)
CPSF-100 (Cleavage and Polyadenylation Specificity Factor subunit 100) (other, human, UniProt Q9P2I0 1-782, looked up, also called SPSF-100) MTSIIKLTTLSGVQEESALCYLLQVDEFRFLLDCGWDEHFSMDIIDSLRKHVHQIDAVLLSHPDPLHLGALPYAVGKLGLNCAIYATIPVYKMGQMFMYDLYQSRHNTEDFTLFTLDDVDAAFDKIQQLKFSQIVNLKGKGHGLSITPLPAGHMIGGTIWKIVKDGEEEIVYAVDFNHKREIHLNGCSLEMLSRPSLLITDSFNATYVQPRRKQRDEQLLTNVLETLRGDGNVLIAVDTAGRVLELAQLLDQIWRTKDAGLGVYSLALLNNVSYNVVEFSKSQVEWMSDKLMRCFEDKRNNPFQFRHLSLCHGLSDLARVPSPKVVLASQPDLECGFSRDLFIQWCQDPKNSIILTYRTTPGTLARFLIDNPSEKITEIELRKRVKLEGKELEEYLEKEKLKKEAAKKLEQSKEADIDSSDESDIEEDIDQPSAHKTKHDLMMKGEGSRKGSFFKQAKKSYPMFPAPEERIKWDEYGEIIKPEDFLVPELQATEEEKSKLESGLTNGDEPMDQDLSDVPTKCISTTESIEIKARVTYIDYEGRSDGDSIKKIINQMKPRQLIIVHGPPEASQDLAECCRAFGGKDIKVYMPKLHETVDATSETHIYQVRLKDSLVSSLQFCKAKDAELAWIDGVLDMRVSKVDTGVILEEGELKDDGEDSEMQVEAPSDSSVIAQQKAMKSLFGDDEKETGEESEIIPTLEPLPPHEVPGHQSVFMNEPRLSDFKQVLLREGIQAEFVGGVLVCNNQVAVRRTETGRIGLEGCLCQDFYRIRDLLYEQYAIV	binds		
CstF-64 (Cleavage-Stimulatory Factor subunit 64) (other, human, UniProt P33240 1-577, looked up) MAGLTVRDPAVDRSLRSVFVGNIPYEATEEQLKDIFSEVGPVVSFRLVYDRETGKPKGYGFCEYQDQETALSAMRNLNGREFSGRALRVDNAASEKNKEELKSLGTGAPVIESPYGETISPEDAPESISKAVASLPPEQMFELMKQMKLCVQNSPQEARNMLLQNPQLAYALLQAQVVMRIVDPEIALKILHRQTNIPTLIAGNPQPVHGAGPGSGSNVSMNQQNPQAPQAQSLGGMHVNGAPPLMQASMQGGVPAPGQMPAAVTGPGPGSLAPGGGMQAQVGMPGSGPVSMERGQVPMQDPRAAMQRGSLPANVPTPRGLLGDAPNDPRGGTLLSVTGEVEPRGYLGPPHQGPPMHHVPGHESRGPPPHELRGGPLPEPRPLMAEPRGPMLDQRGPPLDGRGGRDPRGIDARGMEARAMEARGLDARGLEARAMEARAMEARAMEARAMEARAMEVRGMEARGMDTRGPVPGPRGPIPSGMQGPSPINMGAVVPQGSRQVPVMQGTGMQGASIQGGSQPGGFSPGQNQVTPQDHEKAALIMQVLQLTADQIAMLPPEQRQSILILKEQIQKSTGAP	binds	no binding	
CPSF-73 (Cleavage and Polyadenylation Specificity Factor subunit 73) (enzyme, human, UniProt Q9UKF6 2-684, looked up, also called CSPF-73) SAIPAEESDQLLIRPLGAGQEVGRSCIILEFKGRKIMLDCGIHPGLEGMDALPYIDLIDPAEIDLLLISHFHLDHCGALPWFLQKTSFKGRTFMTHATKAIYRWLLSDYVKVSNISADDMLYTETDLEESMDKIETINFHEVKEVAGIKFWCYHAGHVLGAAMFMIEIAGVKLLYTGDFSRQEDRHLMAAEIPNIKPDILIIESTYGTHIHEKREEREARFCNTVHDIVNRGGRGLIPVFALGRAQELLLILDEYWQNHPELHDIPIYYASSLAKKCMAVYQTYVNAMNDKIRKQININNPFVFKHISNLKSMDHFDDIGPSVVMASPGMMQSGLSRELFESWCTDKRNGVIIAGYCVEGTLAKHIMSEPEEITTMSGQKLPLKMSVDYISFSAHTDYQQTSEFIRALKPPHVILVHGEQNEMARLKAALIREYEDNDEVHIEVHNPRNTEAVTLNFRGEKLAKVMGFLADKKPEQGQRVSGILVKRNFNYHILSPCDLSNYTDLAMSTVKQTQAIPYTGPFNLLCYQLQKLTGDVEELEIQEKPALKVFKNITVIQEPGMVVLEWLANPSNDMYADTVTTVILEVQSNPKIRKGAVQKVSKKLEMHVYSKRLEIMLQDIFGEDCVSVKDDSILSVTVDGKTANLNLETRTVECEEGSEDDESLREMVELAAQRLYEALTPVH	binds	binds	
B1			binds
